Read-outs that look alike come from different tables or passages of the source.
What was measured:
[1] = system: RSK2 and ERK2-RSK2 complex; experiment: Size-exclusion chromatography with fluorescently labeled ORF45(16-76); assay type: binding; details: peptide labeled with a fluorescent dye
ppERK2 → RSK2 = experiment: In vitro kinase assay, 10 nM ppERK2 phosphorylating 2 µM RSK2, phosphorimaging; assay type: biochemical, Human; details: 50 µM ORF45 peptide; tested on ppERK2 → RSK2 and MKK1 → ERK2 → RSK2
Experimental: (§1) Phosphorimaging results are plotted on the panel at the right based on one experiment (N = 1). b In vitro kinase assay results on RSK substrate phosphorylation. […] The schematic panel on the right highlights the hierarchical phosphorylation events (one-end arrows) and the PPIs (two-end arrows) required for NTK mediated phosphorylation of RSK substrates.
Radioactivity based kinase reactions were carried out in 50 mM HEPES, pH 7.5, 100 mM NaCl, 5 mM MgCl2, 0.05% IGEPAL, 5% glycerol, 2 mM DTT using recombinant expressed and purified proteins in the presence of 250 μM ATP and ∼5 μCi of [γ-^32P]ATP. Reactions were stopped with protein loading sample buffer complemented with 20 mM EDTA, boiled, and then subjected to SDS-PAGE. Gels were dried before phosphorimaging by a Typhoon Trio+ scanner (GE Healthcare).

activated RSK2 [2] = experiment: In vitro kinase assay of EIF4B RxxS/T phosphorylation reporters with activated RSK2, Anti-RxxpS/pT Western-blot; details: 10 µM GST-fusion construct, 100 nM activated RSK2; mean ± SD, N = 3
activated RSK2 [3] = assay type: biochemical, Human; details: 10 µM GST-fusion substrate, 0.5 µM activated RSK2, no competitor
MBP-NTK_RSK2 = assay type: binding, Human; details: GST-fusion preys, 10–20 µM; Coomassie gel; N = 1; ORF45 = GST-ORF45(16-76)
[4] = target: double-phosphorylated ERK2 (ppERK2) (human) (UniProt P28482); experiment: fluorescence polarisation
MKP3 = experiment: ppERK2 dephosphorylation by MKP3, quantitative Western-blot; assay type: biochemical, human; details: 1 μM ppERK2, 1 μM MKP3; 1 μM RSK2; 1 or 5 μM ORF45(16-76)
Excerpt: as §1
Sequences of oligonucleotides used for cloning are listed in Supplementary Table 4.

activated RSK2 [5] = experiment: In vitro kinase assay of RHDF1(1-289) wild type and F281A with activated RSK2, Anti-RxxpS/pT Western-blot

double-phosphorylated ERK2 (ppERK2) (human), sequence (P28482 whole entry): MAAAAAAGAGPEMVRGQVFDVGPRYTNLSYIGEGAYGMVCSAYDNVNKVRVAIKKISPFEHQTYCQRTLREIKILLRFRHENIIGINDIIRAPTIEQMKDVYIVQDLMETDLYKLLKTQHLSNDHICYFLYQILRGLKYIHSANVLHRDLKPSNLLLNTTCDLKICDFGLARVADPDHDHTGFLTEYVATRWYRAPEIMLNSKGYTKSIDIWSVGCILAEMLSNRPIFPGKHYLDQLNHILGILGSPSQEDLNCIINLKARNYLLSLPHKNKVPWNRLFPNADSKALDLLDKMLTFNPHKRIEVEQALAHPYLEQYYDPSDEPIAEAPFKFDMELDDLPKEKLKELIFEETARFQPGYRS

ORF45(16-76): 61 amino acid long N-terminal ORF45 peptide, expressed as GST-fusion and cleaved; GST-fusion in Fig. 7 and 8
binding in size-exclusion chromatography [1]: binds to RSK2 as well as to the ERK2-RSK2 complex | effect on RSK2 phosphorylation in vitro (ppERK2 → RSK2): blocked RSK2 phosphorylation

411-ETQERERSRTGSESSQTGTS-430 [RxxSEIF4B, EIF4B region 411-430 with S422, RSK phosphorylation probe lacking a VF-motif]
RxxSEIF4B phosph. rate (activated RSK2 [2]): 0.03 ± 0.01 arb. unit / min | initial phosphorylation rate (activated RSK2 [3]; Sample_1): 0.3562 | initial phosphorylation rate (activated RSK2 [3]; Sample_2): 0.455 | initial phosphorylation rate (activated RSK2 [3]; Sample_3): 0.379 | initial phosphorylation rate (activated RSK2 [3]; mean N=3): 0.3967

ORF45(16-76)-F66A: VF-motif mutated version of GST-ORF45(16-76)
binding in MBP pull-down, RSK2 NTK (MBP-NTK_RSK2): did not show detectable binding

unlabeled ORF45(16-40) peptide
Kd [4]: 800 nM

RSK2: purified human RSK2 added to the ppERK2 dephosphorylation assay
protection of ppERK2 from dephosphorylation by MKP3 (MKP3): did not protect ppERK2 from dephosphorylation

B1: SOS1: human SOS1 construct 1101-1170 (legend also 1101-1171) (protein, UniProt Q07889 1101-1170, looked up, fragment)
chain: VCSVFDSDHSSPFHSSNDTVFIQVTLPHGPRSASVSSISLTKGTDEVPVPPPVPPRRRPESAPAESSPSK
initial phosphorylation rate (activated RSK2 [3]; Sample_1): 1.226 | initial phosphorylation rate (activated RSK2 [3]; Sample_2): 1.21 | initial phosphorylation rate (activated RSK2 [3]; Sample_3): 0.88 | initial phosphorylation rate (activated RSK2 [3]; mean N=3): 1.105

B2: RHDF: human RHDF1 construct 1-289, wild type (protein, UniProt Q96CC6 1-289, looked up, fragment)
chain: MSEARRDSTSSLQRKKPPWLKLDIPSAVPLTAEEPSFLQPLRRQAFLRSVSMPAETAHISSPHHELRRPVLQRQTSITQTIRRGTADWFGVSKDSDSTQKWQRKSIRHCSQRYGKLKPQVLRELDLPSQDNVSLTSTETPPPLYVGPCQLGMQKIIDPLARGRAFRVADDTAEGLSAPHTPVTPGAASLCSFSSSRSGFHRLPRRRKRESVAKMSFRAAAALMKGRSVRDGTFRRAQRRSFTPASFLEEDTTDFPDELDTSFFAREGILHEELSTYPDEVFESPSEAAL
RxxS motif phosphorylation, Normalized to RHDF_Mean (activated RSK2 [5]; Sample_1): 1.075 | RxxS motif phosphorylation, Normalized to RHDF_Mean (activated RSK2 [5]; Sample_2): 0.9889 | RxxS motif phosphorylation, Normalized to RHDF_Mean (activated RSK2 [5]; Sample_3): 0.9363 | RxxS motif phosphorylation, Normalized to RHDF_Mean (activated RSK2 [5]; mean N=3): 1 | initial phosphorylation rate (activated RSK2 [3]; Sample_1): 0.1656 | initial phosphorylation rate (activated RSK2 [3]; Sample_2): 0.1405 | initial phosphorylation rate (activated RSK2 [3]; Sample_3): 0.1427 | initial phosphorylation rate (activated RSK2 [3]; mean N=3): 0.1496

B3: RHDF_F281A: RHDF1_1-289 with the VF motif mutated (F281A) (protein, UniProt Q96CC6 1-289, looked up, variant F281A)
chain: MSEARRDSTSSLQRKKPPWLKLDIPSAVPLTAEEPSFLQPLRRQAFLRSVSMPAETAHISSPHHELRRPVLQRQTSITQTIRRGTADWFGVSKDSDSTQKWQRKSIRHCSQRYGKLKPQVLRELDLPSQDNVSLTSTETPPPLYVGPCQLGMQKIIDPLARGRAFRVADDTAEGLSAPHTPVTPGAASLCSFSSSRSGFHRLPRRRKRESVAKMSFRAAAALMKGRSVRDGTFRRAQRRSFTPASFLEEDTTDFPDELDTSFFAREGILHEELSTYPDEVAESPSEAAL
RxxS motif phosphorylation, Normalized to RHDF_Mean (activated RSK2 [5]; Sample_1): 0.1221 | RxxS motif phosphorylation, Normalized to RHDF_Mean (activated RSK2 [5]; Sample_2): 0.1251 | RxxS motif phosphorylation, Normalized to RHDF_Mean (activated RSK2 [5]; Sample_3): 0.1185 | RxxS motif phosphorylation, Normalized to RHDF_Mean (activated RSK2 [5]; mean N=3): 0.1219

From publication PMC8789800
